Reference: US20230272020A1 (MEDICAL RESEARCH AND DEVELOPMENT FUND FOR HEALTH SERVICES …, published 2023)

T1: WT-Sema3A with C-terminal His tag (human, UniProt Q14563 21-771, limits assumed)
T1 construct: also called wild type Sema3A; WT-Sema3A peptide; not shown: C-terminal His tag
T1 sequence: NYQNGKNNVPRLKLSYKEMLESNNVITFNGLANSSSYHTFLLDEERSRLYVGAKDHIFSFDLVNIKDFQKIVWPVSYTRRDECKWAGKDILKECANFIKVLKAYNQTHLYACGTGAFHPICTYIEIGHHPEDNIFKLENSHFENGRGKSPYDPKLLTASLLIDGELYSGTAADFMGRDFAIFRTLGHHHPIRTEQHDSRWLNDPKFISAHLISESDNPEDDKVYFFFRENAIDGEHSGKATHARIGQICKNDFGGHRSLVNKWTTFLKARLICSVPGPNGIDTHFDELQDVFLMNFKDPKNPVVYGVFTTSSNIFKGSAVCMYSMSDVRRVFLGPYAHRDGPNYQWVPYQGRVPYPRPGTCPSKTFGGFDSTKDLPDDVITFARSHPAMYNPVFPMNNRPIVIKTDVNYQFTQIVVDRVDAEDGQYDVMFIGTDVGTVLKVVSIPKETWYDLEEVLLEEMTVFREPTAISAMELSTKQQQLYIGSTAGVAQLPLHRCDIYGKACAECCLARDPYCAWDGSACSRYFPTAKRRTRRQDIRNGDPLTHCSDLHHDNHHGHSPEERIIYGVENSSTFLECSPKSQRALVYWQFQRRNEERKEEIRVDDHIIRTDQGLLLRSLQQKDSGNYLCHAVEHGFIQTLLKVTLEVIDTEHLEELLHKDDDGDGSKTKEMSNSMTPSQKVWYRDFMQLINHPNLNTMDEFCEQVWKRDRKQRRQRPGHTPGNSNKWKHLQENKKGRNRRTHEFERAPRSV

B1: Sema3A-AP (WT-Sema3A in frame with alkaline phosphatase) (ligand)
chain: NYQNGKNNVPRLKLSYKEMLESNNVITFNGLANSSSYHTFLLDEERSRLYVGAKDHIFSFDLVNIKDFQKIVWPVSYTRRDECKWAGKDILKECANFIKVLKAYNQTHLYACGTGAFHPICTYIEIGHHPEDNIFKLENSHFENGRGKSPYDPKLLTASLLIDGELYSGTAADFMGRDFAIFRTLGHHHPIRTEQHDSRWLNDPKFISAHLISESDNPEDDKVYFFFRENAIDGEHSGKATHARIGQICKNDFGGHRSLVNKWTTFLKARLICSVPGPNGIDTHFDELQDVFLMNFKDPKNPVVYGVFTTSSNIFKGSAVCMYSMSDVRRVFLGPYAHRDGPNYQWVPYQGRVPYPRPGTCPSKTFGGFDSTKDLPDDVITFARSHPAMYNPVFPMNNRPIVIKTDVNYQFTQIVVDRVDAEDGQYDVMFIGTDVGTVLKVVSIPKETWYDLEEVLLEEMTVFREPTAISAMELSTKQQQLYIGSTAGVAQLPLHRCDIYGKACAECCLARDPYCAWDGSACSRYFPTAKRRTRRQDIRNGDPLTHCSDLHHDNHHGHSPEERIIYGVENSSTFLECSPKSQRALVYWQFQRRNEERKEEIRVDDHIIRTDQGLLLRSLQQKDSGNYLCHAVEHGFIQTLLKVTLEVIDTEHLEELLHKDDDGDGSKTKEMSNSMTPSQKVWYRDFMQLINHPNLNTMDEFCEQVWKRDRKQRRQRPGHTPGNSNKWKHLQENKKGRNRRTHEFERAPRSV
notes: Secreted by HEK293-Sema3A-AP cells and used as 50-fold concentrated conditioned medium; also called Sema3A-Alkaline Phosphatase; AP-Sema3A; not shown: alkaline phosphatase fused in frame
B2: CD72 (full-length, untagged, on cells: BLCL-CD72 cells; CD4+ T cells) (receptor, human, UniProt P21854 1-359, looked up)
chain: MAEAITYADLRFVKAPLKKSISSRLGQDPGADDDGEITYENVQVPAVLGVPSSLASSVLGDKAAVKSEQPTASWRAVTSPAVGRILPCRTTCLRYLLLGLLLTCLLLGVTAICLGVRYLQVSQQLQQTNRVLEVTNSSLRQQLRLKITQLGQSAEDLQGSRRELAQSQEALQVEQRAHQAAEGQLQACQADRQKTKETLQSEEQQRRALEQKLSNMENRLKPFFTCGSADTCCPSGWIMHQKSCFYISLTSKNWQESQKQCETLSSKLATFSEIYPQSHSYYFLNSLLPNGGSGNSYWTGLSSNKDWKLTDDTQRTRTYAQSSKCNKVHKTWSWWTLESESCRSSLPYICEMTAFRFPD
notes: whole, on cells; also called CD72 receptor

Columns and labels:
neuropilin-1 receptor = target: T2, neuropilin-1 receptor (human, UniProt O14786 22-923); experiment: Sema3A-AP on parental U87MG cells expressing Nrp1, alkaline phosphatase colorimetric assay
T2 construct: whole, on cells; Endogenous receptor on human cells; also called Nrp1; nrp1

[1] = target: T1, WT-Sema3A with C-terminal His tag; experiment: inferred by the filing from the phosphorylation assay in BLCL versus BLCL+CD72 cells
Protocol: Cells were serum starved for 16 h. At the day of the experiment, cells were activated with 5 μg/ml anti IgM for 5 min at 37° C. and then 10 μg/ml of Sema3A or elution buffer as a control were added for extra 10 min at 37° C. The experiment was terminated by a wash with ice cold PBS and lysed with phosphorylation lysis buffer (50 mM Tris-HCl pH-7.5, 150 mM NaCl, 2 mM EDTA, 2 mM EGTA, 5 mM NaF, 2 mM Na₃VO₄, 10 mM Na₄P₂O₇, 1% Triton X-100). 80 μg of proteins were subjected to SDS-PAGE and immunoblotted with an antibody directed against phosphorylated target protein, the blot was then stripped and re-probed with an antibody directed against total protein. Western blots were probed with the following antibodies: anti STAT4 (C-4) (Santa Cruz Biotechnology), anti phospho-STAT4 (Tyr693) (Santa Cruz Biotechnology), p38 MAPK Antibody (Cell Signaling Technology, Inc), Phospho-p38 MAPK (Thr180/Tyr182) Antibody (Cell Signaling Technology, Inc). Quantification of band intensity was performed using ImageQuant LAS 4000 program.
To test whether Sema3A signal transduction is mediated by CD72, Furthermore, CD72 was expressed in primary B-lymphoblastoid cells that lack neuropilin-1. […] Next, BLCL cells and BLCL cells expressing CD72 (BLCL+CD72) were stimulated with WT-Sema3A peptide. The phosphorylation state of Stat-4 and P38 was than determined. […]

T2 sequence (O14786 22-923): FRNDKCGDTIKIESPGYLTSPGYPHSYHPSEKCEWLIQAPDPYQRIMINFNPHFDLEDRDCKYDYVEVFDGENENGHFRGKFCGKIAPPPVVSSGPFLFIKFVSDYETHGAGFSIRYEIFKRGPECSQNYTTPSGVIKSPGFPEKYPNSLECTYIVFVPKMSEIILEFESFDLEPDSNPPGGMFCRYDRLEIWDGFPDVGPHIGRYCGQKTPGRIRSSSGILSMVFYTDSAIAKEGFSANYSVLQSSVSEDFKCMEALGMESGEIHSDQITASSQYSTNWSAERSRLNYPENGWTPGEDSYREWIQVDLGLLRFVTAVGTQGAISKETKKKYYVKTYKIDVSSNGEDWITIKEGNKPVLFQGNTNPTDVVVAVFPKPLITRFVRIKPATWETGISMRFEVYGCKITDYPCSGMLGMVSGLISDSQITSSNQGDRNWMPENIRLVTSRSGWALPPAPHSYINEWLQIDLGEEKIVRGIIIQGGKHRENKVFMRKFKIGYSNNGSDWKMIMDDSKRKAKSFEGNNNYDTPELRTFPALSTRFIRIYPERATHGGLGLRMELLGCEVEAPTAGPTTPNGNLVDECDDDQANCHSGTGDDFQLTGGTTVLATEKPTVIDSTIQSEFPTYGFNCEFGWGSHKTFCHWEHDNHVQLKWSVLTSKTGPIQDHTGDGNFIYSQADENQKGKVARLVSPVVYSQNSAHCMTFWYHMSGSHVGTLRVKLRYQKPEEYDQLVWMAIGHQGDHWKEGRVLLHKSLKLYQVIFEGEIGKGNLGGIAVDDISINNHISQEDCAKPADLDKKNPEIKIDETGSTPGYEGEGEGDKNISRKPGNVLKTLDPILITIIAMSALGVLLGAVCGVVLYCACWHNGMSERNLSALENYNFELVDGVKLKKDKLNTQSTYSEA

Binder | binding result (neuropilin-1 receptor) | binding result [1]
B1 | binds | 
B2 |  | binds
